Measured values reported in patent US20140242072A1, “ANTI-ICAM-1 ANTIBODIES TO TREAT MULTIPLE-MYELOMA RELATED DISORDERS” (BIOINVENT INTERNATIONAL AB, priority 2011, published 2014).

Columns and labels:
[1] = target: T1, ICAM-1 (BI-AB epitope) on cells from multiple-myeloma-related disorders (Homo sapiens, UniProt P05362); assay: BI-AB epitope expression on bone marrow cells of patients with multiple-myeloma-related disorders by flow cytometry; format: binding; conditions: FACS
T1 construct: endogenous in cells; host or cells: primary bone marrow cells (plasma cells) from patients with plasmacytoma, plasma cell leukemia or light chain amyloidosis
T1 sequence (P05362 28-532): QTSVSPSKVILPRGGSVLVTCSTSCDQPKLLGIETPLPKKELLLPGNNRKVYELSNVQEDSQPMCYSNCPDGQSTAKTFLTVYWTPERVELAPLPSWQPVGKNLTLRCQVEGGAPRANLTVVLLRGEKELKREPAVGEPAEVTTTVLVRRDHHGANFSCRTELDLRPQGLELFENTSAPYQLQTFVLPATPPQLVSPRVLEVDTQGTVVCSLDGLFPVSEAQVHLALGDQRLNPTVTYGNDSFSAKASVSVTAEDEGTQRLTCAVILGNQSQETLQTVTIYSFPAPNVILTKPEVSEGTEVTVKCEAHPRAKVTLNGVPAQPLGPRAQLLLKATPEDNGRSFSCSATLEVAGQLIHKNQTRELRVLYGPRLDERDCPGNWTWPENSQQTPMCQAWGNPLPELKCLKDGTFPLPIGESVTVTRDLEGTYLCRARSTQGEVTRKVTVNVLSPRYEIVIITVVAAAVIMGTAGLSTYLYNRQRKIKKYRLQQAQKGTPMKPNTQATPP
Excerpt: FIG. 1: BI-AB epitope expression in a cohort of patients with plasma cell disorders, consecutively analysed at Lund University Hospital, Sweden. • Pat no (Patient number); M (male); F (female); Ig (immunoglobulin class of M-component); M comp (monoclonal Ig component in serum); Skel. destr (number of skeletal destruction as measured by X-ray); n/a (not available); MM-cells (cells from multiple-myeloma-related disorders counted as % of all nucleated cells in bone marrow smears); ISS (International Staging System of MM); T (number of different MM treatment regimes before BI-AB analysis); Diagnosis; AL (amyloid light chain amyloidosis); PCL (plasma cell leukemia); PC (plasmacytoma); Expression level (BI-AB epitope expression level measured by FACS on cells from multiple-myeloma-related disorders: +++ (very highly positive), ++ (highly positive), + (positive) or − (negative); Positive MM cells (BI-AB epitope positive cells from multiple-myeloma-related disorders as measured by FACS).
We evaluated expression of the BI-AB epitope on bone marrow cells in patients with multiple-myeloma-related disorders (plasmacytoma, plasma cell leukemia, and light chain amyloidosis) by flow cytometry (FIG. 1).
Cells from multiple-myeloma-related disorders were identified using fluorescent antibodies against the following surface antigens CD38, CD138, CD45 and CD56 according to European Myeloma Network guidelines on multiparametric flow cytometry in MM (Rawstron et al., 2008) and confirming monoclonal cells from multiple-myeloma-related disorders with intracellular staining of lambda and kappa light chains.

[2] = target: T2, Intercellular Adhesion Molecule-1 (ICAM-1) (human, UniProt P05362 28-532); assay: flow cytometry (FACS) on bone marrow plasma cells of patients with PC, PCL or AL
T2 construct: whole, on cells; Endogenous ICAM-1 on primary patient cells; also called CD54
T2 sequence (P05362 28-532): as above

median BI-AB epitope expression level relative to normal B cells from the same patients ([1]; cells from multiple-myeloma-related disorders vs normal B cells): 10 times higher
BI-AB epitope expression level on cells from multiple-myeloma-related disorders ([1]; patient bone marrow cells): very highly expressed
binding result [2]: binds
B1: BI-AB antibody (antibody, V domains shown)
VH: EVQLLESGGGLVQPGGSLRLSCAASGFTFSNAWMSWVRQAPGKGLEWVAFIWYDGSNKYYADSVKGRFTISRDNSKNTLYLQMNSLRAEDTAVYYCARYSGWYFDYWGQGTLVTVSS
VL: QSVLTQPPSASGTPGQRVTISCTGSSSNIGAGYDVHWYQQLPGTAPKLLIYDNNNRPSGVPDRFSGSKSGTSASLAISGLRSEDEADYYCQSYDSSLSAWLFGGGTKLTVLG
notes: It says the antibody was described previously in WO 2007/112110; also called exemplary antibody of the invention
BI-AB epitope positive cells from multiple-myeloma-related disorders ([1]; all patients with plasmacytoma, plasma cell leukemia or light chain amyloidosis): expressed the BI-AB epitope on most cells
